Numbering of substitutions follows the chain as printed. Values joined by “and” are separate entries in the source; they are usually repeats but may differ in a detail not shown here. Equal values may be shown once.
T1: human membrane-bound IL-6R subunit alpha (human, UniProt P08887 20-468)
T1 sequence: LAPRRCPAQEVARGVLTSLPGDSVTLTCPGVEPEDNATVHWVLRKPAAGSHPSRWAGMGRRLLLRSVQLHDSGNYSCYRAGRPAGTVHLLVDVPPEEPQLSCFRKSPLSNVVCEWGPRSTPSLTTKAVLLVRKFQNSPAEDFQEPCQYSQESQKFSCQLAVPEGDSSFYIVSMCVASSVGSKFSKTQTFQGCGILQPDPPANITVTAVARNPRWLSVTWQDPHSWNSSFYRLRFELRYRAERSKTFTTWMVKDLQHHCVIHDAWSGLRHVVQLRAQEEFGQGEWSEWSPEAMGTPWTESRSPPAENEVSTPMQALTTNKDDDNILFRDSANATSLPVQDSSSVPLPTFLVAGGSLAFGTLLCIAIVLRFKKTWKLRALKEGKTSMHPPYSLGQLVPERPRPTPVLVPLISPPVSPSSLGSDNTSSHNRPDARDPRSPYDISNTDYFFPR

T2: mouse membrane-bound IL-6R subunit alpha (mouse, UniProt P22272 20-460)
T2 sequence: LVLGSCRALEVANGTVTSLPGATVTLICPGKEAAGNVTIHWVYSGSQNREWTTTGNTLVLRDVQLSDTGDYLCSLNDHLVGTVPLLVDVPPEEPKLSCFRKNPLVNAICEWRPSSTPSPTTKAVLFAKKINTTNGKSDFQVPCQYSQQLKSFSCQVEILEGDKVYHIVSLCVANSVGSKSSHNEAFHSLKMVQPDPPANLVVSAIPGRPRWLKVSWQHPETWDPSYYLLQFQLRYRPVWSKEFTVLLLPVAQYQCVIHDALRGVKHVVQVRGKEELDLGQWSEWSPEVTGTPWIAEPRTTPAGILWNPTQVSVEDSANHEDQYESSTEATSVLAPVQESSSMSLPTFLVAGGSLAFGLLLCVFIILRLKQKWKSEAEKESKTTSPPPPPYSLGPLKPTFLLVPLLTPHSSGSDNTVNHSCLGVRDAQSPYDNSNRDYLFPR

T3: murine soluble IL-6R (mouse, UniProt P22272 20-347, limits assumed)
T3 sequence: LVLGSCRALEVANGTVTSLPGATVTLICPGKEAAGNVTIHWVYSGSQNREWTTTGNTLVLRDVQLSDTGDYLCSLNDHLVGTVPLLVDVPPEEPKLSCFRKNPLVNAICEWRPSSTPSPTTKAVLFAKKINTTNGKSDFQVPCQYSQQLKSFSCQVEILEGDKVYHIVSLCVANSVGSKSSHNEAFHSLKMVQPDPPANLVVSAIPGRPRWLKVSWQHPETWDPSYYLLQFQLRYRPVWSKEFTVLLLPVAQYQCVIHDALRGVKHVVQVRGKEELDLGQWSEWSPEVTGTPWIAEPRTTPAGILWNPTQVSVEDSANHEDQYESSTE

T4: human soluble IL-6R (human, UniProt P08887 20-357, limits assumed)
T4 sequence: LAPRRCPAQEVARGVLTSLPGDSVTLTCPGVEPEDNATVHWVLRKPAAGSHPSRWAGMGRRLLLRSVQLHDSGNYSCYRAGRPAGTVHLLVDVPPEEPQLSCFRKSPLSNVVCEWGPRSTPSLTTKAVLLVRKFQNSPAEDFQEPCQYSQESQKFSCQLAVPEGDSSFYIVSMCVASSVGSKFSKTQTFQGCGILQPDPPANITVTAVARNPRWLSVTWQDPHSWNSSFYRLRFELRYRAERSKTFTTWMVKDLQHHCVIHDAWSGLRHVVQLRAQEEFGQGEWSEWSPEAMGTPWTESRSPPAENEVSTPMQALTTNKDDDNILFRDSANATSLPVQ

B1: anti-IL-6R IgG antibody 07 (C07 antibody, Fab chimerized with human IgG1) (antibody, V domains shown)
VH: EVKLVESGGGLVQPGGSLKLSCAASGFTFSSYAMSWVRQTADKRLELVANINSNGGSTYYPDSVKGRFTISRDNAKNTLFLQMSSLKSEDTAMYYCAREGYYTMDYWGQGTSVTVSS
VL: DIVLTQSPASLAVSPGQRATISCRASESVDSYGNSFMNWYQQKPGQPPKLLIYLASNLESGVPARFSGSGSRTDFTLTIDPVEADDAATYYCQQNNEDPYTFGGGTKLEIK
B2: anti-IL-6R IgG antibody 19 (C19 antibody, Fab chimerized with human IgG1) (antibody, V domains shown)
VH: B1 VH with V5M, S31N, A33G, A41P, N50I, I51M, N54K, K65M, F80Y, E99D
VL: B1 VL with P15L, E27K, Y32F, N38H, P47S, K49R, Y53F
B3: anti-IL-6R IgG antibody 12 (C12 antibody, Fab chimerized with human IgG1) (antibody, V domains shown)
VH: EVKLMESGGGLVQPGGSLKLSCAASGFTFSNYGMSWVRQTPDKRLEWVANINSNGGSTYYPDSVKGRFTISRDNAQNTLYLQMSSLKSEDTAMYYCTRDGNFVSDYWGQGTTLTVSS
VL: B1 VL
B4: anti-IL-6R IgG antibody 20 (C20 antibody, Fab chimerized with human IgG1) (antibody, V domains shown)
VH: B3 VH with W47L, N50I, Q76K, M93I, T97A
VL: B1 VL with P15L, S35R, M37L
B5: anti-IL-6R IgG antibody 09 (C09 antibody, Fab chimerized with human IgG1) (antibody, V domains shown)
VH: B3 VH with K3Q, M5V, G10D, W47L, N50A, Q76K, T97A, F102Y
VL: B1 VL with P15L, N38H, Y100W

molecular target: T1, human membrane-bound IL-6R subunit alpha; assay: cell-based or functional assay

Binder | STAT3 phosphorylation in % in HEK293_IL-6R cells (10 ng/ml IL-6 for 30 min = 100%), IgG at 1 µg/ml [%]
B1 | 86.2
B2 | 89.5
B3 | 97.8
B4 | 86.9
B5 | 69.7

molecular target: T2, mouse membrane-bound IL-6R subunit alpha; assay: cell-based or functional assay

Binder | Proliferation in % of Ba/F3_gp130_muIL-6R cells (10 ng/ml murine IL-6 + 200 ng/ml murine soluble IL-6R = 100%, mixed signalling), IgG at 10 µg/ml [%]
B1 | 108
B2 | 116
B3 | 114
B4 | 114
B5 | 106

molecular target: T1, human membrane-bound IL-6R subunit alpha; assay: cell-based or functional assay; remark: another data set of the same source

Binder | Proliferation in % of Ba/F3_gp130_IL-6R cells with 10 ng/ml IL-6 and 200 ng/ml sIL-6R (mixed signalling), IgG at 1 µg/ml [%] | Proliferation in % of Ba/F3_gp130_IL-6R cells with 10 ng/ml IL-6 and 200 ng/ml sIL-6R (mixed signalling), IgG at 10 µg/ml [%]
B1 | 93 | 85.9
B2 | 104 | 95.2
B3 | 94.3 | 87.6
B4 | 94.7 | 88.6
B5 | 101 | 97.6

molecular target: T1, human membrane-bound IL-6R subunit alpha; assay: cell-based or functional assay; remark: another data set of the same source

Binder | IC50 for inhibition of IL-6 classical signalling-induced proliferation [nM]
B1 | > 53
B2 | > 53
B3 | > 53
B4 | > 53
B5 | > 53

molecular target: T1, human membrane-bound IL-6R subunit alpha; assay: cell-based or functional assay; remark: another data set of the same source

Binder | STAT3 phosphorylation in % in HEK293_IL-6R cells (10 ng/ml IL-6 + 200 ng/ml sIL-6R = 100%, mixed signalling), IgG at 1 µg/ml [%]
B1 | 105
B2 | 98.4
B3 | 99.9
B4 | 88.1
B5 | 102

molecular target: T3, murine soluble IL-6R; assay: cell-based or functional assay

Binder | Proliferation in % of Ba/F3_gp130 cells (10 ng/ml murine IL-6 + 200 ng/ml murine soluble IL-6R = 100%), IgG at 10 µg/ml [%]
B1 | 104
B2 | 108
B3 | 106
B4 | 86.2
B5 | 104

molecular target: Hyper-IL-6 (recombinant fusion protein consisting of IL-6 and soluble IL-6R); assay: cell-based or functional assay

Binder | IC50 of inhibition of proliferation of Ba/F3_gp130 cells induced by 28 ng/ml Hy-IL-6
B1 | 644 ng/ml and 4.3 nM
B2 | 755 ng/ml and 5 nM
B3 | 748 ng/ml and 5 nM
B4 | 304 ng/ml and 2 nM
B5 | 4130 ng/ml and 28 nM

molecular target: T4, human soluble IL-6R; assay: cell-based or functional assay

Binder | IC50 of inhibition of proliferation of Ba/F3_gp130 cells induced by 10 ng/ml IL-6 and 200 ng/ml sIL-6R
B1 | 757 ng/ml and 5 nM
B2 | 1210 ng/ml and 8 nM
B3 | 863 ng/ml and 5.8 nM
B4 | 531 ng/ml and 3.5 nM
B5 | 5260 ng/ml and 35 nM

molecular target: T4, human soluble IL-6R; assay: cell-based or functional assay; remark: another data set of the same source

Binder | STAT3 phosphorylation in % in HEK293 cells (10 ng/ml IL-6 + 200 ng/ml sIL-6R for 30 min = 100%), IgG at 1 µg/ml [%]
B1 | 2.8
B2 | 6.9
B3 | 4
B4 | 0.2
B5 | 20

molecular target: T2, mouse membrane-bound IL-6R subunit alpha; assay: cell-based or functional assay; remark: another data set of the same source

Binder | Proliferation in % of Ba/F3_gp130_muIL-6R cells (10 ng/ml murine IL-6 = 100%), IgG at 10 µg/ml [%]
B1 | 101
B2 | 105
B3 | 102
B4 | 108
B5 | 104

molecular target: T1, human membrane-bound IL-6R subunit alpha; assay: cell-based or functional assay; remark: another data set of the same source

Binder | Proliferation in % of Ba/F3_gp130_IL-6R cells (10 ng/ml IL-6 = 100%), IgG at 1 µg/ml [%] | Proliferation in % of Ba/F3_gp130_IL-6R cells (10 ng/ml IL-6 = 100%), IgG at 10 µg/ml [%]
B1 | 92 | 90.8
B2 | 100 | 93.1
B3 | 94.3 | 92.2
B4 | 92.6 | 87.6
B5 | 100 | 94
